Data: article PMC9820243, “Structural and Functional Characterization of a New Bacterial Dipeptidyl Peptidase III Involved in Fruiting Body Formation in Myxobacteria” (International Journal of Molecular Sciences, 2022)

Tests used:
[1] = target: the molecule itself; assay: SEC; HiLoad 16/600 Superdex 200 pg, 20 mM Tris-HCl (pH 7.0) with 0.1 M NaCl, 1 mL/min; mass standards ovalbumin, conalbumin, aldolase, ferritin
[2] = target: the molecule itself; assay: crystal structure; Se-Met-labelled protein, sitting-drop vapor diffusion at 20 °C, 0.1 M sodium acetate trihydrate pH 4.59, 24% w/v PEG 3350, 0.01 M TCEP; SAD, 1.90 Å; ligand-free, two molecules in the asymmetric unit

Protein	stoichiometry N [1]	binding result [2]
Dipeptidyl peptidase III from Corallococcus sp. EGB (recombinant CoDPP III) (enzyme, UniProt A0A5H1ZR28 1-537, looked up, signal peptide in the construct; dipeptidyl peptidase III (CoDPP III) of Corallococcus sp; EGB, open reading frame of 1719 bp encoding 572 amino acids, predicted signal peptide residues 1 to 22; cloned into Nde I and Xho I sites of pET29a(+); The Xho I site of pET29a probably adds Leu-Glu before the His6 tag (surmised); also called native DPP III; source: E. coli BL21(DE3), purified (CM-Sepharose …)) RLPDAPTLKRMTARFAPVDVKVDVSKLPDAEKRALAKILQAAKIMDPLFLSQAWAGNPTLLLDLVEDTTPLGKERLHAFLLNKGPWSRLDEAKPFIPGVPPKPDEGNFYPAGATKAEVEAWVKSLPEAQQHAATGFFTTVRKGPDGKFLTVPYSVEYQGELGMAAKLLREAAALTQQSTLKRFLETRAEAFLSNDYYASEVAWMELDASVEPTIGPYEVYEDGWFNYKAAFEAFIGVRDEAETQKLAKFSAELQELENNLPIEPALRNPKLGALAPIRVINSLYSSGDGNRGVQTAAYNLPNDERVAAEKGTKRVMLKNIQEAKFQRVLVPIAKVALPAKDRKDVSFDAFFTHILMHELMHGLGPHNVTVAGKQTTVRQALQASSSAIEEAKADISGLWALQRLVDKGTLDKELQRTMYTTFLASAFRSIRFGIDEAHGKGIALQLNHFLDTGAVKVNADGTFEVVPDKMQASVTSLTNQLMSLQAKGDRAAAEELLAKQGVVRPSVQKVLEKLKNVPVDIEPRYVTAESLVKDFGA	2	
Selenomethionine-labelled dipeptidyl peptidase III from Corallococcus sp. EGB (enzyme, UniProt A0A5H1ZR28 1-537, looked up, selenomethionine (Se-Met labelled), signal peptide in the construct; dipeptidyl peptidase III (CoDPP III) of Corallococcus sp; EGB, same pET29a-Codpp III construct as m1 (572 amino acids, predicted signal peptide residues 1 to 22); the final model lacks 27 amino acids at the N-terminus and 8 (chain A) or 12 (chain B) at the C-terminus; Same construct as m1, expressed in a methionine auxotroph with Se-Met; also called Se-CoDPPIII; …) RLPDAPTLKRMTARFAPVDVKVDVSKLPDAEKRALAKILQAAKIMDPLFLSQAWAGNPTLLLDLVEDTTPLGKERLHAFLLNKGPWSRLDEAKPFIPGVPPKPDEGNFYPAGATKAEVEAWVKSLPEAQQHAATGFFTTVRKGPDGKFLTVPYSVEYQGELGMAAKLLREAAALTQQSTLKRFLETRAEAFLSNDYYASEVAWMELDASVEPTIGPYEVYEDGWFNYKAAFEAFIGVRDEAETQKLAKFSAELQELENNLPIEPALRNPKLGALAPIRVINSLYSSGDGNRGVQTAAYNLPNDERVAAEKGTKRVMLKNIQEAKFQRVLVPIAKVALPAKDRKDVSFDAFFTHILMHELMHGLGPHNVTVAGKQTTVRQALQASSSAIEEAKADISGLWALQRLVDKGTLDKELQRTMYTTFLASAFRSIRFGIDEAHGKGIALQLNHFLDTGAVKVNADGTFEVVPDKMQASVTSLTNQLMSLQAKGDRAAAEELLAKQGVVRPSVQKVLEKLKNVPVDIEPRYVTAESLVKDFGA		binds
